Reference: patent US7790845B2, “Bacterial ion channel” (Children's Medical Center Corporation, priority 2001, dated 2010)
Read-outs that look alike come from different tables or passages of the source. Marks after values point to notes of the source that are not given here.

Tests used:
Format in all cases: cell-based
NaChBac = NaChBac (Halalkalibacterium halodurans (Bacillus halodurans), UniProt Q9KCR8, S273L); test: cell-based
[1] = tested on: CHO-K1 cells or COS-7 cells; test: Ca2+/Na+ selectivity of wt and mutant NaChBac, reversal potential under bi-ionic conditions (Example 2); conditions: for PCa/PNa: external solution 80 NMDG-Cl, 50 CaCl2, 20 HEPES
Procedure: (§1) Unless otherwise stated, the pipette solution contained (in mM); 147 Cs, 120 methanesulfonate, 8 NaCl, 10 EGTA, 2 Mg^2+-adenosine triphosphate, and 20 HEPES (pH 7.4). Bath solution contained (in mM); 140 NaCl, 10 CaCl2, 5 KCl, 10 HEPES (pH 7.4), and 10 glucose. For some experiments, NaCl was isotonically replaced by CaCl2.
For reversal potential measurements to determine the relative permeabilities of Na^+ and Ca^2+, the internal pipette solution contained (in mM): 100 mM Na-Gluconate, 10 NaCl, 10 EGTA, 20 HEPES-Na (pH 7.4 adjusted with NaOH, [Na^+]total=140). The external solution was (in mM): 140 NMDG-Cl, 10 CaCl2, 20 HEPES (pH 7.4 adjusted with HCl) or 80 NMDG-Cl, 50 CaCl2, and 20 HEPES. The fast kinetics and small current amplitude of SKM1 in 10 mM [Ca^2+]o necessitated the use of 50 mM [Ca^2+]o for accurate determination of Erev. The permeability ratio of Ca2+ was estimated according to the following equation: PCa/Px=asi(exp(ErevF/RT)[(exp(ErevF/RT)+1]/(4ase) where R, T, F, and Erev are the gas constant, absolute temperature, Faraday constant, and reversal potential, respectively, and x represents Cs^+ or Na^+ (i, internal; e, external) (Hille 2001). For calculations of membrane permeability, activity coefficients for Ca^2+, Cs^+ and Na^+ were estimated as follows: as=γs[Xs] where activity, as, is the effective concentration of an ion in solution, s related to the nominal concentration [Xs] by the activity coefficient, γs·γs was calculated from the Debye-Hückel equation: log γs=−0.51*zs^2√μ/[1+3.8ασ√μ] where μ is the ionic strength of the solution, zs is the charge on the ion, and αs is the effective diameter of the hydrated ion in nanometers (nm). The calculated activity coefficients were γ(Cs)i=0.70, γ(Ca)e=0.331, γ(Na)i=0.75 and γ(Na)e=0.73. The liquid junction potentials were measured using a salt bridge as described by Neher (Neher 1992) and these measurements agreed within 3 mV to those calculated by the JPCalc program (P. Barry) within Clampex (Axon Instruments, Union City, Calif.).
Reversal potentials of the NaChBac mutants were measured under bi-ionic conditions as described in the Methods. […] The average peak current amplitude measured at 0 mV obtained in 10 mM Ca^2+ Tyrode's solution or in 105 mM Ca^2+ solution is shown in FIG. 7B and normalized to the current amplitude measured in 10 mM Ca^2+ solution (FIG. 7C).
Relative permeability (PCa/PNa) was calculated as described in the Methods and Table 1. Since PCa/PNa had not been described for native Nav channels under these specific conditions, we also measured the relative permeability for SKM1, a skeletal muscle Na^+-selective channel (SKM1; Kraner, Rich et al. 1998) was expressed in COS and CHO cells and examined under identical conditions as NaChBac and similar to its mutants; Table 1).

CHO-K1 or COS-7 cells [2] = test: Whole-cell current, activation, inactivation and recovery of NaChBac (Example 1)
CHO-K1 or COS-7 cells [3] = test: Single channel properties of NaChBac, inside-out patch
Source text: The single channel properties of NaChBac were studied in the inside-out patch configuration. Solutions were the same as used in whole-cell recording except that the pipette and bath solutions were reversed. The unitary single channel conductance was best fit with a slope of 12 pS±1 pS (n=7 cells). Consistent with the whole-cell current, single channels were activated by depolarization and both open and closed times varied as a function of voltage (not shown). An ensemble average of single channel currents from 5 cells resembled whole cell INaChBac with τact=10±3.5 ms and τinact=203±43 ms (FIG. 2D).

CHO-K1 or COS-7 cells [4] = test: Ion selectivity and relative permeability of NaChBac (Example 1)
Source text: The internal pipette solution used in determining the relative permeability of K^+ and Ca^2+ contained (in mM) 133 Cs-methanesulfonate, 5 CsCl, 10 EGTA, 10 HEPES (pH adjust to 7.2 with CsOH). External solution for K^+ permeability experiments contained 142 KCl, 10 HEPES, 10 glucose (pH 7.3 adjusted with KOH). External solution for Ca^+ permeability determinations contained 105 CaCl2, 10 HEPES, 20 glucose (pH 7.3, adjusted with Ca(OH2). The external solution used to study Ma^+ permeability contained (in mM): 140 NaCl, 5CsCl, 10 HEPES, 10 glucose (pH 7.3, adjusted with NaOH). Internal solutions were the same as described in the Detection of Current example. The relative permeability of Cs^+ versus Na^+ was calculated according to: PCs/PNa=([Na]o−[Na]iexp(ErevF/RT)/([Cs]iexp(Erev/RT)/([Cs]o) (1)
The relative permeabilities of K^+ and Ca^2+ were evaluated under bi-ionic conditions, and the relative permeability of K^+ and Ca^2+ to Cs^+ was calculated according to the following equations: Pk/PCs=[Cs]iexp(ErevF/RT)/[K]o (2) PCa/Pcs=([Cs]iexp(ErevF/RT){exp(ErevR/RT)+1}/4[Ca]o) (3)
INaChBac was weakly permeant to Ca^2+; no significant difference in current was observed by sequential perfusion with bath solution containing 1 and 10 mM [Ca^2+]o (FIG. 3B). In isotonic [Ca^2+]o (cations replaced with 105 mM Ca^2), in the inward current was <6% of that in normal [Na^+] (7.6±0.9 pA/pF at −10 mV, n=8; FIG. 3B). In contrast, INaChBac, amplitude correlated well with [Na^+]o (FIG. 3C, D). […] To estimate the relative ion selectivity of the channel, we measured changes in reversal potential while changing ionic composition. The calculated relative selectivity (±SEM) of NaChBac based on measured Erev was: PNa/PCa=72±10 (n=12); PNa/PCs=383±56(n=8); PNa/PK=171±16(n=8). INaCahBac selectivity for Na^+ is at least as high as traditional Nav channels (1, 14).

[5] = tested on: CHO-K1 cells or COS-7 cells; test: Expression, voltage- and time-dependence of wt and mutant NaChBac (Example 2)
Source text: NaChBac was cloned from Bacillus halodurans C-125 DNA by the polymerase chain reaction (PCR; BAB05220) (Ren, Navarro et al. 2001). The NaChBac construct containing an open reading frame of 274 amino acid residues was subcloned into a pTracer-CMV2 vector (Invitrogen, Carlsbad, Calif.) containing enhanced green fluorescent protein (eGFP). The skeletal muscle Na^+ channel SKM1 (M26643) was used in comparison to NaChBac under identical recording conditions and determinations of permeability ratios. Mutations were introduced into the NaChBac cDNA by site-directed mutagenesis (Quickchange™ site-directed mutagenesis kit; Stratagene; La Jolla, Calif.). All mutations were confirmed by DNA sequencing and restriction digestion. Wild-type NaChBac and mutant cDNAs were transfected into CHO-K1 cells or COS-7 cells with LipofectAMINE 2000 (Life Technologies, Rockville, Md.). Transfected cells were identified by fluorescence microscopy and membrane currents were recorded 24 to 48 hours after transfection.
as §1
The voltage dependence of NaChBac and mutants channel activation was determined from a holding potential of −100 mV. Instantaneous tail current were measured at −100 mV after a test potential of 40 ms duration. Normalized tail current amplitude was plotted vs. test potentials and fitted with a Boltzmann function. Measurements of steady state inactivation for NaChBac and mutants channel were resolved using 2 s prepulses and 1 s test pulse to −10 mV, 0 mV or +20 mV depending on the mutant's peak voltage. Cells were held at −100 mV for 20 s between pulses to allow the recovery from inactivation. Normalized test current amplitude was plotted vs. prepulse potential and fitted with a Boltzmann function. The activation and steady state inactivation curve were fitted by the Boltzmann equation: I=Imax−(Imax−Imin)/(1+exp((V−V1/2)/k)) where Imax and Imin are the maximum and minimum current values, V is the test voltage, V1/2 is the voltage activation midpoint and k is the slope factor.
Whole-cell currents were recorded using an Axopatch 200B (Axon Instruments, Union City, Calif.) amplifier. Data were digitized at 10 or 20 kHz, and digitally filtered off-line at 1 kHz. Patch electrodes were pulled from borosilicate glass and had resistances of 2-5 MΩ. All experiments were conducted at 22°±2° C. For CHO cells, cell capacitance was 7.6±0.3 pF and for COS-7 cells was 13.9±0.6 pF. […] Series resistance (Rs) was compensated up to 90% to reduce all series resistance errors to <5 mV. Cells in which […] were discarded. Pooled data are presented as means±SEM. Statistical comparisons were made using two-way analysis of variance (ANOVA) and two-tailed t-test with Bonferroni correction; P<0.05 indicated statistical significance.

[6] = calculated from measured Erev, n=8

ω-Conotoxin GVIA
block of INaChBac (NaChBac): ineffective

COCCOC(=O)C1=C(C)NC(C)=C(C(=O)OC(C)C)C1c1cccc([N+](=O)[O-])c1 (stereo not drawn) [nimodipine]
IC50 (NaChBac): 1 µM

ω-Agatoxin IVA
block of INaChBac (NaChBac): ineffective

[Ni+2] [Ni^2+]
IC50 (NaChBac; read-out: concentration of agent needed to block INaChBac by 50% (IC50)): 720 µM

COC(=O)C1=C(C)NC(C)=C(C(=O)OC)C1c1ccccc1[N+](=O)[O-] [nifedipine, Nifedipine]
IC50 (NaChBac): 2.2 µM

[Co+2] [Co^2+]
reduction of the channel current (NaChBac): reduced the channel current to various degrees

SKM1: skeletal muscle Na+ channel SKM1 (M26643), used in comparison to NaChBac [reference compound]
PCa/PNa [1]: 0.32 ± 0.07 (n = 8)^c

NC1=N[C@H](O)[C@H]2[C@H]3O[C@]4(O)O[C@@H]([C@@H](O)[C@@]2(N1)[C@@H]4O)[C@]3(O)CO [tetrodotoxin, Tetrodotoxin]
block of INaChBac (NaChBac): completely insensitive | sensitivity of INaChBac to the blocker (figure legend) (NaChBac): insensitive

[Cd+2] [Cd^2+]
reduction of the channel current (NaChBac): reduced the channel current to various degrees

COCC(=O)O[C@]1(CCN(C)CCCc2nc3ccccc3[nH]2)CCc2cc(F)ccc2[C@@H]1C(C)C [mibefradil]
IC50 (NaChBac): 22 µM | sensitivity of INaChBac to the blocker (figure legend) (NaChBac): relatively insensitive

B1: NaChBac: bacterial voltage-sensitive Na+-selective ion channel from Bacillus halodurans, 274 amino acids, SEQ ID NO: 1; pore residues 190-195 LESWAS (protein)
chain: MKMEARQKQNSFTSKMQKIVNHRAFTFTVIALILFNALIVGIETYPRIYADHKWLFYRIDLVLLWIFTIEIAMRFLASNPKSAFFRSSWNWFDFLIVAAGHIFAGAQFVTVLRILRVLRVLRAISVVPSLRRLVDALVMTIPALGNILILMSIFFYIFAVIGTMLFQHVSPEYFGNLQLSLLTLFQVVTLESWASGVMRPIFAEVPWSWLYFVSFVLIGTFIIFNLFIGVIVNNVEKAELTDNEEDGEADGLKQEISALRKDVAELKSLLKQLK
modifications: Bacillus Halodurans
notes: pore residues 190-195 LESWAS
voltage of 50% steady-state inactivation (CHO-K1 or COS-7 cells [2]): −40 mV | activation τ (CHO-K1 or COS-7 cells [2]; at −10 mV, n=32): 12.9 ± 0.4 ms | inactivation τ (CHO-K1 or COS-7 cells [2]; at −10 mV, n=32): 166 ± 13 ms | reversal potential of INaChBac (CHO-K1 or COS-7 cells [2]; whole-cell, ENa=+72 mV): +70 mV | τact of ensemble average of single channel currents (CHO-K1 or COS-7 cells [3]; 5 cells): 10 ± 3.5 ms | τinact of ensemble average of single channel currents (CHO-K1 or COS-7 cells [3]; 5 cells): 203 ± 43 ms | unitary single channel conductance (CHO-K1 or COS-7 cells [3]; inside-out patch, n=7 cells): 12 pS | slope of Erev as a function of [Na+]o (CHO-K1 or COS-7 cells [4]): 57.8 mV/decade | inward current in isotonic [Ca2+]o relative to that in normal [Na+] (CHO-K1 or COS-7 cells [4]; 105 mM Ca2+): < 6% | peak current (CHO-K1 or COS-7 cells [4]; 140 mM [Na+]o/1 mM [Ca2+]o): 1430 pA | current density (CHO-K1 or COS-7 cells [4]; 140 mM [Na+]o/1 mM [Ca2+]o, n=8): 135.9±11 pA/pF | relative selectivity PNa/PCs (CHO-K1 or COS-7 cells [4]; [6]): 383±56 | relative selectivity PNa/PK (CHO-K1 or COS-7 cells [4]; [6]): 171±16 | relative selectivity PNa/PCa (CHO-K1 or COS-7 cells [4]; calculated from measured Erev, n=12): 72±10 | peak current (CHO-K1 or COS-7 cells [4]; isotonic [Ca2+]o): 87 pA | current density (CHO-K1 or COS-7 cells [4]; isotonic [Ca2+]o (105 mM Ca2+), −10 mV, n=8): 7.6±0.9 pA/pF | current in COS-7 cells relative to CHO-K1 cells [5]: 4 to 6 times | GFP expressing/transfected cells with substantial or detectable currents ([5]; 24-48 hours after transfection): More than 98% | V1/2 act ([5]; Boltzmann fit of tail currents): −22 mV | τact ([5]; membrane voltage −10 mV): 12.9 ± 0.4^a ms | τinact ([5]; membrane voltage −10 mV): 166.0 ± 13^a ms | kact ([5]; slope factor of activation): 7 mV/e fold | V1/2 inact ([5]; steady state inactivation, 2 s prepulses): −40 mV | current in 10 mM Ca2+/NMDG solution compared to 10 mM Ca2+ solution with Na+ [1]: almost undetectable | current on replacing 140 mM Na+/10 mM Ca2+ solution by isotonic (105 mM) Ca2+ solution [1]: practically undetectable | PCa/PNa ([1]; listed as wt NaChBac): 0.15 | current in 10 mM Ca2+/NMDG solution compared to 10 mM Ca2+ solution with Na+ ([1]; listed as wt NaChBac): virtually eliminated
